{
  "source": "patent EP1486509A2",
  "about": "“Radiolabeled annexin-galactose cluster conjugates” (NEORX CORPORATION, priority 1994, dated 1996)",
  "key": {"[1]": {"tested_on": "atrial thrombi and injured left atrium", "set-up": "species or system Yorkshire swine", "settings": "in vivo", "procedure": "Image acquisition was performed as described below. […] A final blood sample was taken for well counting.\nD. Sample Collection. […] Each vial was counted for 1 minute.\nWell counting ratios were obtained for a variety of tissue samples. For the injured tissues and thrombi, multiple specimens were usually taken from the same animal. In those cases, the maximum ratio for any one specimen is reported, as well as the average of all specimens taken. The maximum for each animal was averaged across all animals and is reported as the Maximum Anx-V Ratio."}, "[2]": {"test": "Blood clearance in the swine model", "settings": "in vivo", "source_text": "An animal model, as previously described in Example III, was employed to evaluate blood clearance of the molecules."}},
  "data": [
    {"substance": "Tc-99m-annexin V: Annexin V radiolabeled with Tc-99m by a diamide dimercaptide N2S2 chelate (Example I)", "values": [
      {"measurement": "highest non-target localization", "setting": "[1]", "value": "kidney"},
      {"measurement": "%ID/g a", "setting": "[2]", "value": "%ID/g a = 0.0389"},
      {"measurement": "%ID/g b", "setting": "[2]", "value": "%ID/g b = 0.0300"}
    ]}
  ]
}
